Reference: patent US11370846B2, “Compositions and methods to regulate Renalase in the treatment of cancer” (Yale University, priority 2014, dated 2022)
Entries after “also recorded” stand apart in the source; their conditions may differ. Where two headings read alike, the source gives them in different places.

Experiments:
[1] = tested on: renalase-1 and renalase-2; experiment: Renalase isoform specificity of anti-renalase antibodies; assay type: binding, human; conditions: renalase-1 vs renalase-2
Description: Peptides were used as immunogens. The peptides generated ranged from 9 to 21 amino acids and corresponded to regions of the renalase-1 and renalase-2 proteins. […] Each peptide was conjugated to the adjuvant KLH via the cysteine and used to immunize 6 rabbits. Antiserum collected from each animal was screened for anti-renalase antibody titer by ELISA assay using both the relevant peptide (BSA-conjugate) or full length renalase-1 or 2. The antisera were also tested for their ability to detect endogenous renalase in tissue lysates by western blot. Using these screening criteria the animals producing antibodies with the preferred characteristics were selected. In some examples and for some peptides, several animals produced antibodies with the required specificity. […] Polyclonal antibodies raised against all of the peptides were generated by purification of total IgG from terminal bleeds by protein G chromatography followed by further purification on peptide affinity chromatography. Further and using standard procedures, lymphocytes from the spleens of selected animals were fused to myeloma cells for hybridoma generation. The hybridoma supernatants were screened for binding to both the peptides against which they were raised and secondarily screened against whole renalase protein. Selected hybridomas were sub-cloned and expanded for antibody purification. The monoclonal antibodies were purified from conditioned hybridoma culture supernatant by protein A affinity chromatography.

[2] = tested on: A375.S2 melanoma cells; experiment: Cell viability, WST-1, A375.S2 melanoma cells; assay type: cell-based, human; conditions: A375.S2, 72 hrs
Description: (§1) FIG. 19A through FIG. 19D are a series of images and charts showing that inhibition of RNLS signaling is cytotoxic to melanoma cells in vitro. […] FIG. 19B comprises two charts depicting relative cell viability: Left panel: Cells were treated with indicated antibodies for 72 hrs and cell viability was determined using WST-1; m28-RNLS (also known as 1D-28-4), m37-RNLS (also known as 1D-37-10): monoclonal antibodies raised against RNLS peptide RP220; Right panel: A375.S2 cells treated with increasing doses of m28-RNLS for 72 hrs and cell viability determined with a WST-1 assay; n=6, * indicates p<0.05 and ** indicates p<0.005. FIG. 19C comprises representative photos of A375.S2, SkMe128, and SkMe15 after 72 hrs incubation with either control rabbit IgG or m28-RNLS. FIG. 19D is a chart depicting relative cell viability, comprising amino acid (AA) sequence of RNLS peptide antagonist (RP220A).
(§2) For additional studies, cell viability was determined using WST-1 reagent (Roche Diagnostics, Indianapolis, Ind., USA) according to the manufacturers' instruction. Absorbances were read using a microplate reader (Power Waves XS, BioTek Instruments, Winooski, Vt., USA).

[3] = tested on: melanoma cells; experiment: Melanoma cell lines in culture, viability/growth; assay type: cell-based, human
Description: as §1, §2

[4] = tested on: A375.S2 xenograft tumors; assay type: in vivo
Description: Immunohistochemistry was performed as described previously (Guo et al., 2012 Cancer science. 103:1474-80). Briefly, tumor tissues were formalin-fixed, paraffin-embedded and cut into 5-μm sections on glass slides. The slides were de-paraffinized and hydrated, followed by antigen retrieval in a pressure cooker containing 10 mM sodium citrate, pH6 buffer. The sections were blocked in 3% hydrogen peroxide for 30 min and 2.5% normal horse serum in PBS/0.1% Tween20 for 1 h followed by incubation with primary antibody and isotype control IgG overnight at 4° C. The following antibodies were used in this study: m28-RNLS at 500 ng/ml; goat polyclonal anti-RNLS at 250 ng/ml (Abcam, ab31291); rabbit monoclonal anti-CD68 (BDBioscience, 1:100); rabbit monoclonal anti-CD163 (AbD Serotec, 1:100); rabbit monoclonal anti-CD86 (Abcam, 1:100); rabbit monoclonal anti-Ki67 (Vector Lab, VP-RM04, 1:100); rabbit monoclonal anti-p21, phspho-Tyr^705-Stat3, and total Stat3 (Cell Signaling Technologies, #2947, 1:100, #9145, 1:400, and #4904, 1:400, respectively). ImmPRESS peroxidase-anti-rabbit IgG (Vector Laboratories, Burlingame, Calif., USA) was used to detect primary antibodies. The color was developed using a Vector DAB substrate kit and counterstained with hematoxylin (Vector Laboratories). Slides were observed and photographed using an Olympus BX41 microscope and camera (Olympus America Inc, Center Valley, Pa., USA).
Female athymic, 18-20 g nude mice (nu/nu) were obtained from Charles River (Willimantic, Conn.) and housed in microisolator cages, with autoclaved bedding in a specific pathogen-free facility, with a 12-h light/dark cycle.
Xenograft tumors were established by subcutaneous injection of A375.S2 cells (2×10^6 in 100 μl of PBS, pH 7.6). When the tumors reached a volume of 50-100 mm^3, the mice were divided into a control group (n=14 treated with rabbit IgG, 40 μg by intraperitoneal injection (IP) once weekly, and 40 ug subcutaneously (SQ) around the tumor site every 3 days), and an experimental group (n=14) that received m28-RNLS (40 μg IP, once weekly, and 40 ug SQ, every 3 days). Tumor size was measured with digital calipers and volume was calculated according to the formula (length×width)×π/2.
At the end of the study, the mice were sacrificed, the tumors were excised and immediately snap-frozen in liquid nitrogen and stored at −80° C. Apoptosis was examined using the TUNEL assay (Roche in situ Apoptosis Detection System), according to the manufacturer's instructions. Sections were examined by light microscopy and the apoptosis index was determined by counting >1000 cells in 10 randomly selected high-power fields (×200 magnification).

[5] = tested on: p38 MAPK; experiment: p38 MAPK phosphorylation in Panc1 cells by western blot; assay type: cell-based, human; conditions: beginning at day 1 post treatment
Description: FIG. 26A through FIG. 26E are a series of images and charts showing that inhibition of RNLS signaling induces apoptosis and cell cycle arrest. […] FIG. 26B is a chart depicting FACS analysis of Panc1 cells in culture treated with either m28-RNLS (30 μg/ml) or 100 μM etoposide (positive control) for 4 days; n=3, * indicates p<0.05. FIG. 26C is an image showing Panc1 cells treated with polyclonal ab31291 or with goat IgG as a negative control, and cells lysates probed for p38 and Bax activation by western blot. […] FIG. 26E is a chart showing the effect of m28-RNLS on cell cycle of Panc1 cells determined by FACS analysis; green curve: no treatment, purple curve: rabbit IgG, red curve: m28-RNLS 30 μg/ml.

B1: 1D-28-4: rabbit anti-renalase monoclonal raised against peptide RP-220 (antigen 1D); heavy chain SEQ ID NO:9, light chain SEQ ID NO:10 (antibody)
heavy: METGLRWLLLVAVLKGVQCQSVEESGGRLVTPGTPLTLTCTVSGFSLSSFAVGWVRQAPGKGLEYIGIISSVGITRYASWAAGRFTISKTSTTVDLKITSPTTEDTATYFCARYGYSGDVNRLDLWGQGTLVTVSSGQPKAPSVFPLAPCCGDTPSSTVTLGCLVKGYLPEPVTVTWNSGTLTNGVRTFPSVRQSSGLYSLSSVVSVTSSSQPVTCNVAHPATNTKVDKTVAPSTCSKPTCPPPELLGGPSVFIFPPKPKDTLMISRTPEVTCVVVDVSQDDPEVQFTWYINNEQVRTARPPLREQQFNSTIRVVSTLPIAHQDWLRGKEFKCKVHNKALPAPIEKTISKARGQPLEPKVYTMGPPREELSSRSVSLTCMINGFYPSDISVEWEKNGKAEDNYKTTPAVLDSDGSYFLYSKLSVPTSEWQRGDVFTCSVMHEALHNHYTQKSISRSPGK
light: MDTRAPTQLLGLLLLWLPGATFAQVLTQTASPVSAAVGGTVTINCQASQSVYDNNNLAWYQQKPGQPPKQLIYGASTLASGVSSRFKGSGSGTQFTLTISGVQCDDAATYYCLGEFSCSSADCFAFGGGTEVVVKGDPVAPTVLIFPPSADLVATGTVTIVCVANKYFPDVTVTWEVDGTTQTTGIENSKTPQNSADCTYNLSSTLTLTSTQYNSHKEYTCKVTQGTTSVVQSFNRGDC
modifications: oryctolagus cuniculus
renalase isoform specificity [1]: recognize renalase-1 and renalase-2 | cytotoxicity with increasing dose [2]: increasing levels of cytotoxicity in correlation with increasing treatment concentrations | melanoma cell growth/viability in culture [3]: inhibits melanoma cells in culture | melanoma cell growth/viability in culture ([3]; listed as m28-RNLS): decreased the viability of all (total of 5) melanoma cell lines tested | Ki67 positive cells ([4]; IHC of xenografted tumors): 13.4±3.0 positive cells/high power field | p21 positive cells ([4]; IHC of xenografted tumors): 24.2±2.4 positive cells | number of CD163+ TAMs ([4]; immunofluorescence of xenografts, listed as m28-RNLS): decreases CD163+TAMs | total and phosphorylated STAT3 in tumors ([4]; immunofluorescence, listed as m28-RNLS): marked reduction; also recorded: dramatic reduction | ratio of CD86+ to CD163+ TAMs ([4]; mouse, in vivo): increases the ratio | toxicity of antibody treatment ([4]; overall animal health and activity): did not appear to be toxic | mouse RNLS expression in tumor mass ([4]; qPCR, mouse specific primers): significant reduction | p-Y705-STAT3 and total STAT3 in tumors ([4]; western blot): significantly decreased | phosphorylation of p38 MAPK [5]: sustained phosphorylation
